According to patent US20240376208A1 (AFFIMED, published 2024):
Like-named read-outs stand apart in the source and are kept apart here. One block for each binder: values may come before it.

Experiments:
[1] = target: T1, EGFR on tumor target cells (MCF-7, Daudi, DK-MG, HCT-116) (UniProt P00533 25-1210, limits assumed); assay: cell-based or functional assay
[2] = target: CD16A on primary human NK cells (human, UniProt P08637 17-254); assay: cell-based or functional assay
[3] = target: T2, biotinylated dimeric CD16A antigen (human, UniProt P08637 17-208, limits assumed, biotinylated (site not stated)); assay: ELISA, biotinylated dimeric CD16A titrated on coated construct
T2 construct: Soluble antigen; also called soluble CD16A antigen
T2 sequence (P08637 17-208 limits assumed): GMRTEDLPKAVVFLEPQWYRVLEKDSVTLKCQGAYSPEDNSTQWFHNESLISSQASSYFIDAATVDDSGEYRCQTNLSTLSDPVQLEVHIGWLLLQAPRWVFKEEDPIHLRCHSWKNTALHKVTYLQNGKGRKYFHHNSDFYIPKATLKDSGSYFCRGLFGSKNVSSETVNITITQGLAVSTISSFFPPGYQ
Experimental: (§1) For the capturing approach, 96-well ELISA plates (Immuno Maxisorp, Nunc) were coated overnight at 4° C. with His-tagged human EGFR or BCMA extracellular domain at concentrations of 3.0 or 0.4 μg/mL, respectively. After blocking with 3% (w/v) skimmed milk powder dissolved in phosphate buffered saline (PBS), antigen coated plates were used for capturing of different multivalent bispecific engagers at concentrations of 3-5 μg/mL in PBS containing 0.3% (w/v) skimmed milk powder. After washing three times with 300 μL per well of PBS containing 0.1% (v/v) Tween 20, plates were incubated with serial dilutions of biotinylated dimeric or monomeric CD16A antigen in PBS containing 0.3% (w/v) skimmed milk powder for 1.5 h at room temperature. After washing, plates were incubated with the detection conjugate Streptavidin HRP, 1:10,000 diluted in PBS containing 0.3% (w/v) skimmed milk powder for 1 h followed by washing and incubation with tetramethylbenzidine substrate (Seramun) for 1-2 min. Reaction was stopped by addition of 0.5 M H₂SO₄ (100 μL/well). Absorbance was measured at 450 nm using a multiwell plate reader, plotted and EC₅₀ values were determined by fitting a nonlinear regression model to sigmoidal dose-response curves (four parameters logistic fit) using GraphPad Prism software.
(§2) Concentration dependent binding of antibody constructs to coated recombinant CD16A antigen, or of soluble monomeric or dimeric CD16 antigen variants to coated or target antigen captured antibody constructs was analyzed in ELISA. Half maximal binding concentrations (EC₅₀) were determined by fitting a nonlinear regression model to sigmoidal dose-response curves (four parameters logistic fit) using GraphPad Prism software.

[4] = target: recombinant CD16A 158V fused to monomeric human Fc (human, UniProt P08637 17-208); assay: ELISA, construct titrated on coated CD16A 158V fused to monomeric human Fc
Sequence of recombinant CD16A 158V fused to monomeric human Fc (P08637 17-208 F176V): as the sequence (P08637 17-208 limits assumed) above, with F160V counted along it

[5] = target: T3, recombinant CD16A 158F fused to monomeric human Fc (human, UniProt P08637 17-208); assay: ELISA, construct titrated on coated CD16A 158F fused to monomeric human Fc
T3 construct: also called recombinant CD16 antigen variant; not shown: monomeric human Fc
T3 sequence (P08637 17-208): as the sequence (P08637 17-208 limits assumed) above
Experimental: To assess binding of EGFR/CD16 or BCMA/CD16 antibodies to coated antigen in ELISA, 96-well ELISA plates (Immuno Maxisorp, Nunc) were coated overnight at 4° C. with recombinant CD16 antigen variants fused to monomeric human Fc at a concentration of 1.5 μg/mL in 100 mM carbonate-bicarbonate buffer. After blocking with 3% (w/v) skimmed milk powder dissolved in phosphate buffered saline (PBS) serial dilutions of bispecific antibody constructs were incubated on the antigen coated plates for 1.5 h at room temperature. […] After washing, plates were incubated with tetramethylbenzidine substrate (Seramun) for 1-2 min. Reaction was stopped by addition of 0.5 M H₂SO₄ (100 μL/well). Absorbance was measured at 450 nm using a multiwell plate reader, plotted and EC₅₀ values were determined by fitting a nonlinear regression model to sigmoidal dose-response curves (four parameters logistic fit) using GraphPad Prism software.
as §2

[6] = target: T2, biotinylated dimeric CD16A antigen; assay: ELISA, biotinylated dimeric CD16A titrated on construct captured by coated His-tagged human EGFR extracellular domain
Experimental: as §1, §2

[7] = target: T1, EGFR on tumor target cells (MCF-7, …); assay: cell-based or functional assay; remark: listed apart in the source
[8] = target: T4, biotinylated monomeric CD16A antigen (human, UniProt P08637 17-208, limits assumed, biotinylated (site not stated)); assay: ELISA, biotinylated monomeric CD16A titrated on coated construct
T4 construct: Soluble antigen; also called soluble CD16A antigen
T4 sequence (P08637 17-208 limits assumed): as above
Experimental: as §1, §2

[9] = target: T4, biotinylated monomeric CD16A antigen; assay: ELISA, biotinylated monomeric CD16A titrated on construct captured by coated His-tagged human EGFR extracellular domain
Experimental: as §1, §2

[10] = target: T1, EGFR on tumor target cells (MCF-7, …); assay: cell-based or functional assay; remark: listed apart in the source

Sequence of CD16A on primary human NK cells (P08637 17-254 limits assumed): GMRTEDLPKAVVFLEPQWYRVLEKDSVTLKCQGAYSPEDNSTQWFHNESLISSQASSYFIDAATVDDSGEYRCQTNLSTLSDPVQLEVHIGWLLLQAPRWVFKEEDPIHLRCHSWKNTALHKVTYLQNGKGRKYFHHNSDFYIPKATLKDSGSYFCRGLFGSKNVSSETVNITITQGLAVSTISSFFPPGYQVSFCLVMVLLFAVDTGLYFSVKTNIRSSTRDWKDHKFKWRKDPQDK

EC50 [3]: 0.99 nM
EC50 [4]: 0.16 nM
EC50 [5]: 0.2 nM
EC50 [6]: 3 nM
EC50 [8]: 4.51 nM
EC50 [9]: 5.54 nM
B1: aBi-scDb-Fc_05 (bispecific antibody)
chain 1: DKTHTCPPCPAPEFEGGPSVFLFPPKPKDTLMISRTPEVTCVVVAVSHEDPEVKFNWYVDGVEVHNAKTKPREEQYNSTYRVVSVLTVLHQDWLNGKEYKCKVSNKALPAPIEKTISKAKGQPREPQVYTLPPSREEMTKNQVSLTCLVKGFYPSDIAVEWESNGQPENNYKTTPPVLDSDGSFFLTSKLTVDKSRWQQGNVFSCSVMHEALHNHYTQKSLSLSPGGGGGSGGGGSSYVLTQPSSVSVAPGQTATISCGGHNIGSKNVHWYQQRPGQSPVLVIYQDNKRPSGIPERFSGSNSGNTATLTISGTQAMDEADYYCQVWDNYSVLFGGGTKLTVLGGSGGSQVQLVQSGAEVKKPGESLKVSCKASGYTFTSYYMHWVRQAPGQGLEWMGAIEPMYGSTSYAQKFQGRVTMTRDTSTSTVYMELSSLRSEDTAVYYCARGSAYYYDFADYWGQGTLVTVSSGGSGGSGGSGGSGGSGGSSYVLTQPSSVSVAPGQTATISCGGHNIGSKNVHWYQQRPGQSPVLVIYQDNKRPSGIPERFSGSNSGNTATLTISGTQAMDEADYYCQVWDNYSVLFGGGTKLTVLGGSGGSQVQLVQSGAEVKKPGESLKVSCKASGYTFTSYYMHWVRQAPGQGLEWMGAIEPMYGSTSYAQKFQGRVTMTRDTSTSTVYMELSSLRSEDTAVYYCARGSAYYYDFADYWGQGTLVTVSSAAAGSHHHHHH
chain 2: QVQLQESGPGLVKPSETLSLTCTVSGGSVSSGSYYWSWIRQPPGKGLEWIGYIYYSGSTNYNPSLKSRVTISVDTSKNQFSLKLSSVTAADTAVYYCARNPISIPAFDIWGQGTMVTVSSGGSGGSGGSGGSGGSGGSQPVLTQPPSVSVAPGKTARITCGGNNIGSKSVHWYQQKPGQAPVLVIYYDSDRPSGIPERFSGSNSGNTATLTISRVEAGDEADYYCQVWDTSSDHVLFGGGTKLTVLDKTHTCPPCPAPEFEGGPSVFLFPPKPKDTLMISRTPEVTCVVVAVSHEDPEVKFNWYVDGVEVHNAKTKPREEQYNSTYRVVSVLTVLHQDWLNGKEYKCKVSNKALPAPIEKTISKAKGQPREPQVYTLPPSREEMTKNQVSLYCLVKGFYPSDIAVEWESNGQPENNYKTTPPVLDSDGSFFLYSKLTVDKSRWQQGNVFSCSVMHEALHNHYTQKSLSLSPGGGGGSGGGGSSYVLTQPSSVSVAPGQTATISCGGHNIGSKNVHWYQQRPGQSPVLVIYQDNKRPSGIPERFSGSNSGNTATLTISGTQAMDEADYYCQVWDNYSVLFGGGTKLTVLGGSGGSQVQLVQSGAEVKKPGESLKVSCKASGYTFTSYYMHWVRQAPGQGLEWMGAIEPMYGSTSYAQKFQGRVTMTRDTSTSTVYMELSSLRSEDTAVYYCARGSAYYYDFADYWGQGTLVTVSSGGSGGSGGSGGSGGSGGSSYVLTQPSSVSVAPGQTATISCGGHNIGSKNVHWYQQRPGQSPVLVIYQDNKRPSGIPERFSGSNSGNTATLTISGTQAMDEADYYCQVWDNYSVLFGGGTKLTVLGGSGGSQVQLVQSGAEVKKPGESLKVSCKASGYTFTSYYMHWVRQAPGQGLEWMGAIEPMYGSTSYAQKFQGRVTMTRDTSTSTVYMELSSLRSEDTAVYYCARGSAYYYDFADYWGQGTLVTVSSGAAEPEA
notes: Asymmetric knob/hole Fc construct with four anti-CD16A Fv domains and only one anti-EGFR Fv domain; all other places print 158 and 159
EC50 [pM], 4 h calcein-release cytotoxicity on MCF-7 target cells, NK cells E:T 5:1 [1]: 5 pM
Emax [%], 4 h calcein-release cytotoxicity on MCF-7 target cells, NK cells E:T 5:1 [1]: 34.2%
Emax [%], 4 h calcein-release NK cell fratricide assay, E:T 1:1 [2]: 27.1%
EC50 [pM], 4 h calcein-release cytotoxicity on Daudi target cells, NK cells E:T 5:1 [7]: 39.9 pM
Emax [%], 4 h calcein-release cytotoxicity on Daudi target cells, NK cells E:T 5:1 [7]: 27.2%

EC50 [3]: 0.97 nM
EC50 [4]: 0.11 nM
EC50 [5]: 0.13 nM
EC50 [6]: 0.79 nM
EC50 [8]: 3.1 nM
EC50 [9]: 1.74 nM
B2: Bi-scDb-Fc_02 (bispecific antibody, human IgG1)
chain: QVQLQESGPGLVKPSETLSLTCTVSGGSVSSGSYYWSWIRQPPGKGLEWIGYIYYSGSTNYNPSLKSRVTISVDTSKNQFSLKLSSVTAADTAVYYCARNPISIPAFDIWGQGTMVTVSSGGSGGSGGSGGSGGSGGSQPVLTQPPSVSVAPGKTARITCGGNNIGSKSVHWYQQKPGQAPVLVIYYDSDRPSGIPERFSGSNSGNTATLTISRVEAGDEADYYCQVWDTSSDHVLFGGGTKLTVLEPKSCDKTHTCPPCPAPEFEGGPSVFLFPPKPKDTLMISRTPEVTCVVVAVSHEDPEVKFNWYVDGVEVHNAKTKPREEQYNSTYRVVSVLTVLHQDWLNGKEYKCKVSNKALPAPIEKTISKAKGQPREPQVYTLPPSREEMTKNQVSLTCLVKGFYPSDIAVEWESNGQPENNYKTTPPVLDSDGSFFLYSKLTVDKSRWQQGNVFSCSVMHEALHNHYTQKSLSLSPGGGGGSGGGGSSYVLTQPSSVSVAPGQTATISCGGHNIGSKNVHWYQQRPGQSPVLVIYQDNKRPSGIPERFSGSNSGNTATLTISGTQAMDEADYYCQVWDNYSVLFGGGTKLTVLGGSGGSQVQLVQSGAEVKKPGESLKVSCKASGYTFTSYYMHWVRQAPGQGLEWMGAIEPMYGSTSYAQKFQGRVTMTRDTSTSTVYMELSSLRSEDTAVYYCARGSAYYYDFADYWGQGTLVTVSSGGSGGSGGSGGSGGSGGSSYVLTQPSSVSVAPGQTATISCGGHNIGSKNVHWYQQRPGQSPVLVIYQDNKRPSGIPERFSGSNSGNTATLTISGTQAMDEADYYCQVWDNYSVLFGGGTKLTVLGGSGGSQVQLVQSGAEVKKPGESLKVSCKASGYTFTSYYMHWVRQAPGQGLEWMGAIEPMYGSTSYAQKFQGRVTMTRDTSTSTVYMELSSLRSEDTAVYYCARGSAYYYDFADYWGQGTLVTVSS
notes: Anti-EGFR scFv - silenced Fc - anti-CD16A scDb; Four anti-CD16A and two anti-EGFR Fv domains
EC50 [pM], 4 h calcein-release cytotoxicity on MCF-7 target cells, NK cells E:T 5:1 [1]: 1.9 pM
Emax [%], 4 h calcein-release cytotoxicity on MCF-7 target cells, NK cells E:T 5:1 [1]: 32.9%
Emax [%], 4 h calcein-release NK cell fratricide assay, E:T 1:1 [2]: 23%
EC50 [pM], 4 h calcein-release cytotoxicity on Daudi target cells, NK cells E:T 5:1 [7]: 20.5 pM
Emax [%], 4 h calcein-release cytotoxicity on Daudi target cells, NK cells E:T 5:1 [7]: 32.6%
Emax [%], 4 h calcein-release cytotoxicity on Daudi target cells, NK cells E:T 5:1 [10]: 18.4%
